Laboratory results taken from article PMC4143955.

Target: SCMV-BJ VPg-YFP^N (BiFC fusion, pUC-SPYNE) (Sugarcane mosaic virus, Beijing isolate (SCMV-BJ))
Test: split reporter (BiFC, NanoBiT); BiFC: YFP^N and YFP^C fusions co-transfected into maize protoplasts; YFP fluorescence captured at 12-18 h post transfection by confocal microscopy

Work on “YFP^C-ZmElc (BiFC fusion, pGD-YFP^C-ZmELC) (natural protein)” yielded a percentage of protoplasts exhibiting fluorescence signal of 64%.
